Target: RecA protein (E. coli)

For RecA N-30 (peptide), the I50, ATPase activity of the RecA NPF was 600 µM.

From patent US20060199768A1
